Experimental data taken from US12173061B2, “Compositions and methods for treatment of chronic lung diseases” (Board of Regents, The University of Texas System, priority 2021, dated 2024).

Tested on: BLM-induced pulmonary fibrosis
Assay: BLM-induced established pulmonary fibrosis in mice, treatment d14-d21
Type: in vivo
Settings: for BLM-induced pulmonary fibrosis (overall): mice, 1.0 U/kg BLM IT, protein 7.5 mg/kg/d IP daily for 7 days starting d14; for BLM-induced pulmonary fibrosis (overall) / lung compliance / lung elastance: d21; for BLM-induced fibrogenic marker proteins (Col1, FN, TN-C, α-SMA) in whole lung homogenates / body weight / collagen and other extracellular matrix deposits (Trichrome staining of lung sections) / fibrogenic marker transcripts in whole lung homogenates / lung weight / lung compliance / lung elastance / whole lung total hydroxyproline: protein 7.5 mg/kg/d IP, 7 days starting d14 after BLM; for lung compliance / lung elastance: flexiVent; for whole lung total hydroxyproline: lung homogenates
Description: FIGS. 9A-9O. M9 peptide and protein mitigated BLM-induced pulmonary fibrosis. Mice exposed to saline or 1.0 U/kg BLM by intratracheal instillation were treated with or without M9 peptide HGHVDPVKTPKI (SEQ ID NO: 4) (10 mg/kg/d) and M9 protein (SEQ ID NO: 1) 7.5 mg/kg/d) via IP injection daily for 7 days starting d14 after BLM injury. FIG. 9A: Representative micro-CT images at d21 after BLM exposure. FIG. 9B: Lung volumes were measured by quantitative-CT renditions. Lung compliance (FIG. 9C) and elastance (FIG. 9D) were measured using a flexiVent system. Lung weights (FIG. 9E) and body weights (FIG. 9F) are presented as bar graphs. Lung homogenates were tested for hydroxyproline (FIG. 9G), soluble collagen (FIG. 9H), pro-fibrogenic marker proteins (FIG. 9I) and mRNAs (FIG. 9J). Bars indicate mean±SD. Statistical significance (*P<0.05, **P<0.01, ***P<0.001 and ****P<0.0001) was assessed by one-way ANOVA with Turkey's multiple comparison. fLfs isolated from IPF lungs treated with PBS or recombinant full length M9 (rM9^FL) protein (2 μg/ml) for 48 h in vitro were tested for pro-fibrogenic proteins (FIG. 9L). fLfs (from IPF lungs) treated with PBS or extracellular domain of rM9^FL protein (rM9^ECD) as in FIG. 9L were tested for pro-fibrogenic proteins (FIG. 9N). The survival the mice treated with rM9^FL is shown FIG. 9M.
FIGS. 10A-10K. UNC5A (“U5”) peptide/protein mitigated BLM-induced pulmonary fibrosis. Mice exposed to saline or 1.0 U/kg BLM by intratracheal instillation were treated with or without U5 peptide (50 residues, SEQ ID NO: 7) (10 mg/kg/d) and full length U5 protein (SEQ ID NO: 5) (7.5 mg/kg/d) via IP injection daily for 7 days starting d14 after BLM injury. FIG. 10A: Representative micro-CT images at d21 after BLM exposure. FIG. 10B: Lung volumes were measured by quantitative-CT renditions. Lung compliance (FIG. 10C) and elastance (FIG. 10D) were measured using a flexiVent system. Lung weights (FIG. 10E) and body weights (FIG. 10F) are presented as bar graphs. Lung homogenates were tested for hydroxyproline (FIG. 10G), soluble collagen (FIG. 10H), pro-fibrogenic marker proteins (FIG. 10I) and mRNAs (FIG. 10J). Bars indicate mean±SD. Statistical significance (*P<0.05, **P<0.01, ***P<0.001 and ****P<0.0001) was assessed by one-way ANOVA with Turkey's multiple comparison.
FIGS. 11A-11K. ALG5 (“A5”) protein mitigated BLM-induced pulmonary fibrosis. Mice exposed to saline or 1.0 U/kg BLM by intratracheal instillation were treated with or without A5 protein (SEQ ID NO: 9) (7.5 mg/kg/d) via IP injection daily for 7 days starting d14 after BLM injury. FIG. 11A: Representative micro-CT images at d21 after BLM exposure. FIG. 11B: Lung volumes were measured by quantitative-CT renditions. Lung compliance (FIG. 11C) and elastance (FIG. 11D) were measured using a flexiVent system. Lung weights (FIG. 11E) and body weights (FIG. 11F) are presented as bar graphs. Lung homogenates were tested for hydroxyproline (FIG. 11G), soluble collagen (FIG. 11H), pro-fibrogenic marker proteins (FIG. 11I) and mRNAs (FIG. 11J). Bars indicate mean±SD. *P<0.05, **P<0.01, ***P<0.001 and ****P<0.0001 were obtained by one-way ANOVA with Turkey's multiple comparison.
FIGS. 12A-12E. WT mice with BLM-PF were treated with or without rM9^ECD (1.5 mg/kg) via intratracheal (IT) instillation daily for 7 d starting d 14 after BLM. Survival (FIG. 12A), body weights (FIG. 12B), lung volumes (FIG. 12C) and lung weights (FIG. 12D) were measured on d 21 post-BLM. Lung homogenates were tested for soluble collagen (FIG. 12E).
FIGS. 13A-13B. FIG. 13A: fLfs (IPF) treated with PBS or M9^mAb (2 μg/ml) or control IgG, tested for pro-fibrogenic proteins (i) and mRNAs (ii). FIG. 13B: WT mice with BLM-PF were left untreated, or intraperitoneal (IP) injected with control IgG or M9^mAb (2.5 mg/kg) daily for 7 d starting 14 d after IT BLM. Body weights (i) and total lung hydroxyproline (ii), and soluble collagen (iii) were measured. […]

Row | Molecule | BLM-induced pulmonary fibrosis (overall) | BLM-induced pulmonary fibrosis (overall) (listed as A5^FL) | BLM-induced pulmonary fibrosis (overall) (listed as ALG5 (A5) Protein) | BLM-induced fibrogenic marker proteins (Col1, FN, TN-C, α-SMA) in whole lung homogenates | body weight | collagen and other extracellular matrix deposits (Trichrome staining of lung sections) | fibrogenic marker transcripts in whole lung homogenates | lung weight | lung compliance | lung elastance | whole lung total hydroxyproline | BLM-induced pulmonary fibrosis (overall) (listed as Full Length U5A Protein) | BLM-induced pulmonary fibrosis (overall) (listed as U5a^FL) | BLM-induced pulmonary fibrosis (overall) (listed as U5 protein)
1 | A5^ECD: recombinant extracellular domain of A5 (ECD of hALG5) (protein, listed as Homo sapiens) MTTATKMPALHRHEEEKFFLNAKGQKETLPSIWDSPTKQLSVVVPSYNEEKRLPVMMDEALSYLEKRQKADPAFTYEVIVVDDGSKDQTSKVAFKYCQKYGSDKVRVITLVKNRGKGGAIRMGIFSSRGEKILMADADGATKFPDVEKLEKGLNDLQPWPNQMAIACGSRAHLEKESIAQRSYFRTLLMYGFHFLVWFLCVKGIRDTQCGFKLFTREAASRTFSSLHVERWAFDVELLYIAQFFKIPIAEIAVNWTEIEGSKLVPFWSWLQMGKDLLFIRLRYLTGAWRLEQTRKMN | mitigated |  |  |  |  |  |  |  |  |  |  |  |  | 
2 | A5 protein: recombinant full length human ALG5 protein (SEQ ID NO: 9) (protein, listed as Homo sapiens) MAPLLLQLAVLGAALAAAALVLISIVAFTTATKMPALHRHEEEKFFLNAKGQKETLPSIWDSPTKQLSVVVPSYNEEKRLPVMMDEALSYLEKRQKRDPAFTYEVIVVDDGSKDQTSKVAFKYCQKYGSDKVRVITLVKNRGKGGAIRMGIFSSRGEKILMADADGATKFPDVEKLEKGLNDLQPWPNQMAIACGSRAHLEKESIAQRSYFRTLLMYGFHFLVWFLCVKGIRDTQCGFKLFTREAASRTFSSLHVERWAFDVELLYIAQFFKIPIAEIAVNWTEIEGSKLVPFWSWLQMGKDLLFIRLRYLTGAWRLEQTRKMN | mitigated | mitigated | Mitigated | inhibition | improvement | reduction | inhibition | reduction | improved | improved | reduction |  |  | 
3 | U5A protein: recombinant full length human UNC5A protein (SEQ ID NO: 5) (protein, listed as Homo sapiens) MAVRPGLWPALLGIVLAAWLRGSGAQQSATVANPVPGANPDLLPHFLVEPEDVYIVKNKPVLLVCKAVPATQIFFKCNGEWVRQVDHVIERSTDGSSGLPTMEVRINVSRQQVEKVFGLEEYWCQCVAWSSSGTTKSQKAYIRIAYLRKNFEQEPLAKEVSLEQGIVLPCRPPEGIPPAEVEWLRNEDLVDPSLDPNVYITREHSLVVRQARLADTANYTCVAKNIVARRRSASAAVIVYVDGSWSPWSKWSACGLDCTHWRSRECSDPAPRNGGEECQGTDLDTRNCTSDLCVHTASGPEDVALYVGLIAVAVCLVLLLLVLILVYCRKKEGLDSDVADSSILTSGFQPVSIKPSKADNPHLLTIQPDLSTTTTTYQGSLCPRQDGPSPKFQLTNGHLLSPLGGGRHTLHHSSPTSEAEEFVSRLSTQNYFRSLPRGTSNMTYGTFNFLGGRLMIPNTGISLLIPPDAIPRGKIYEIYLTLHKPEDVRLPLAGCQTLLSPIVSCGPPGVLLTRPVILAMDHCGEPSPDSWSLRLKKQSCEGSWEDVLHLGEEAPSHLYYCQLEASACYVFTEQLGRFALVGEALSVAAAKRLKLLLFAPVACTSLEYNIRVYCLHDTHDALKEVVQLEKQLGGQLIQEPRVLHFKDSYHNLRLSIHDVPSSLWKSKLLVSYQEIPFYHIWNGTQRYLHCTFTLERVSPSTSDLACKLWVWQVEGDGQSFSINFNITKDTRFAELLALESEAGVPALVGPSAFKIPFLIRQKIISSLDPPCRRGADWRTLAQKLHLDSHLSFFASKPSPTAMILNLWEARHFPNGNLSQLAAAVAGLGQPDAGLFTVSEAEC |  |  |  | inhibition | improvement | reduction | inhibition | reduction | improved | improved | reduction | Mitigated | mitigated | mitigated
